# Assay results as given in patent US20090081786A1, “Peptide sequences for modulation of protein kinase C” (priority 2006, published 2009).
# T1: annexin V (Homo sapiens, UniProt P08758)
# T1 sequence (P08758 1-320): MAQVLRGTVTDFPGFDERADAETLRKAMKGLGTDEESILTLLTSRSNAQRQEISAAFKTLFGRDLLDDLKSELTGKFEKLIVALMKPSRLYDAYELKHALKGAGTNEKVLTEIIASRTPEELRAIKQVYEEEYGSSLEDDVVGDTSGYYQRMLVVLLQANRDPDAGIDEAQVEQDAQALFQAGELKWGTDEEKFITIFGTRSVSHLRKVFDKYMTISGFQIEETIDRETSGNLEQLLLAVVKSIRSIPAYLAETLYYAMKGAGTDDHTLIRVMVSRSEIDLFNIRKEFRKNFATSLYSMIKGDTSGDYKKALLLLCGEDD
# B1: δ-PKC: full length δ-protein kinase C (SEQ ID NO:16) (protein, listed as Homo sapiens)
# chain: MAPFLRISFNSYELGSLQVEDEASQPFCAVKMKEALSTERGKTLVQKKPTMYPEWKTTFDAHIYEGRVIQIVLMRAAEDPVSEVTVGVSVLAERCKKNNGKAEFWLDLQPQAKVLMCVQYFLEDGDCKQSMRSEEEAKFPTMNRRGAIKQAKIHYIKNHEFIATFFGQPTFCSVCKEFVWGLNKQGYKCRQCNAAIHKKCIDKIIGRCTGTATNSRDTIFQKERFNIDMPHRFKVYNYMSPTFCDHCGSLLWGLVKQGLKCEDCGMNVHHKCREKVANLCGINQKLLAEALNQVTQRSSRKLDTTESVGIYQGFEKKPEVSGSDILDNNGTYGKIWEGSTRCTLENFTFQKVLGKGSFGKVLLAELKGKDKYFAIKCLKKDVVLIDDDVECTMVEKRVLALAWESPFLTHLICTFQTKDHLFFVMEFLNGGDLMFHIQDKGRFELYRATFYAAEIICGLQFLHSKGIIYRDLKLDNVMLDRDGHIKIADFGMCKENIFGEGRASTFCGTPDYIAPEILQGLKYSFSVDWWSFGVLLYEMLIGQSPFHGDDEDELFESIRVDTPHYPRWITKESKDIMEKLFERDPDKRLGVTGNIRIHPFFKTINWSLLEKRKVEPPFKPKVKSPSDYSNFDPEFLNEKPQLSFSDKNLIDSMDQEAFHGFSFVNPKFEQFLDI
# B2: δ-V1: V1/C2 domain of δ-PKC (SEQ ID NO:18), used as myelin basic protein fusion (protein)
# chain: MAPFLRISFNSYELGSLQAEDDASQPFCAVKMKEALTTDRGKTLVQKKPTMYPEWKSTFDAHIYEGRVIQIVLMRAAEDPMSEVTVGVSVLAERCKKNNGKAEFWLDLQPQAKVLMCVQYFLEDGDCKQSMRSEEEAMFPTMNRRGAIKQAKIHYIKNHE
# modifications: left off: large carriers
# B3: ε-V1: V1 region of ε-PKC (SEQ ID NO:20) (protein, listed as Homo sapiens)
# chain: MVVFNGLLKIKICEAVSLKPTAWSLRHAVGPRPQTFLLDPYIALNVDDSRIGQTATKQKTNSPAWHDEFVTDVCNGRKIELAVFHDAPIGYDDFVANCTIQFEELLQNGSRHFEDWIDLEPEGKVYVIIDLSGSSGEAPKDNEE
# Target: T1, annexin V
# Assay: overlay binding assay on immobilized annexin V
# Settings: immobilized annexin V on nitrocellulose, overlay 37° C. 30 min, Western blotting
# Experimental: A binding assay was performed in vitro, using an immobilized annexin V with the δ-PKC, δ-V1 (SEQ ID NO:18) (the C2 domain of δ-PKC), δ-V5 (SEQ ID NO:19), and ε-V1 (SEQ ID NO:20) peptides. These domains are recognized in the art as participating in protein-protein interactions.
# 10 μg of the annexin V was separated on 12% SDS-PAGE gel and transferred to nitrocellulose, and then cut into strips. The strips were incubated with blocking buffer (50 mM Tris pH 7.5, 200 mM NaCl, 3% bovine serum albumin, 0.1% PEG20). The strips were then incubated in overlay buffer (50 mM Tris pH 7.5, 200 mM NaCl, 1% PEG20, 12 mM β-mercaptoethanol) in the presence where appropriate of 30 μg crude bacterial cell lysate containing fusion proteins of myelin basic protein (MBP)-delta V1 PKC (MBP-δV1), glutathione-S-transferase-delta V5 PKC (GST-δV5), and full length sequences of δ-PKC or rat purified ε-PKC (SEQ ID NO:21) at 37° C. for 30 min. The strips where then washed with wash buffer (50 mM Tris pH 7.5, 200 mM NaCl, 0.1% PEG20, 12 mM β-mercaptoethanol), and then incubated with fixative (0.2% formaldehyde in PBS) and neutralizing solution (0.2M glycine in PBS) at room temperature 20 min each. After washing with buffer, the strips were probed with antibodies according to the overlay protein, and resulting bands were visualized using ECL Western blotting.
row,binding to annexin V,Molecule
1,bind to the annexin V,B1
2,bind to the annexin V,B2
3,did not bind to the annexin V,B3
